From the supplement of paper PMC10724198
± gives the standard deviation of the averaged measurements.
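Also: PSI is a weighted mean of sequencing reads over stability bins, variants kept only with over 10 reads, mCherry proximal and sfGFP distal, peptide attached via GGGS linker.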

These sequences were tested on Saccharomyces cerevisiae (assay: protein stability index of tFT-peptide fusion (C-terminal peptide) (PSI (0-1 scale)); higher = more stable (slower turnover)). Details: genetic background: das1 deletion; temperature: 30 C.
Experimental: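 MPS profiling in S. cerevisiae of the tFT-X12 degron library: putative degron peptides plus stable controls, 12 aa, fused to the C-terminus of a sfGFP-mCherry timer. Cells are FACS-sorted into 8 mCherry/sfGFP bins and deep-sequenced. PSI runs from 0 (unstable) to 1 (stable). Backgrounds are wild type, das1Δ and doa10Δ at 30 °C, and wild type, das1Δ, cdc34-1 and cdc53-1 at 37 °C; 2-3 technical replicates each.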
With SCLVLDYCFSLV the protein stability index was 0.419 ± 0.029. SCYDYVILLQLS gave a protein stability index of 0.435 ± 0.04. Work on SFFFTLLICFLF yielded a protein stability index of 0.234 ± 0.0085. Sequence SFLLGCCWLVLC has a protein stability index of 0.27 ± 0.03. Sequence SFLLVWCLLPEI has a protein stability index of 0.309 ± 0.029. SFLVFLYFFMVF was tested, and the protein stability index was 0.335 ± 0.038. In the case of SGWGGGTWVKMG, the protein stability index is reported as 0.662 ± 0.024. For SIQRKIRRMKEN, the protein stability index was 0.699 ± 0.048. SIVDLFRLRSLS showed a protein stability index of 0.684 ± 0.008. SLALLFSFLLFL was tested, and the protein stability index was 0.448 ± 0.021. Work on SLFPHIFFFFFA yielded a protein stability index of 0.386 ± 0.036. Work on SLICLSVGVLLR yielded a protein stability index of 0.189 ± 0.029. Sequence SLSSSFQFSSPS has a protein stability index of 0.69 ± 0.051. Sequence SPIGIFCFILCR has a protein stability index of 0.153 ± 0.027. Work on SPTQIPLWILAS yielded a protein stability index of 0.308 ± 0.04. SRGRVLRLLLLV showed a protein stability index of 0.393 ± 0.025. SRRCGLFVFILF was tested, and the protein stability index was 0.324 ± 0.041. Work on SRSFFRRLLFCF yielded a protein stability index of 0.679 ± 0.022. SSAPPTLHTRPS was tested, and the protein stability index was 0.662 ± 0.023. SSRRVVLPLLVA showed a protein stability index of 0.309 ± 0.032. SVHKYGFIKEIN gave a protein stability index of 0.668 ± 0.061. For SVVLCRFVLRIF, the protein stability index was 0.136 ± 0.015. SVVWIRFVGVRV showed a protein stability index of 0.322 ± 0.024. Sequence SWFNLLSILPRD has a protein stability index of 0.7 ± 0.088. Sequence SWIKRYEITCIL has a protein stability index of 0.424 ± 0.044. For SWWISKWVGLNC, the protein stability index was 0.636 ± 0.013. For SYMWLVEVLLFI, the protein stability index was 0.196 ± 0.028. For SYVFEFIVSVVF, the protein stability index was 0.253 ± 0.03. SYVVVFVIFCVG was tested, and the protein stability index was 0.206 ± 0.03. For TDFICLLWLLHW, the protein stability index was 0.422 ± 0.02. TFRVRRQKNRNM showed a protein stability index of 0.631 ± 0.022. For TLFSFLLVFVFG, the protein stability index was 0.228 ± 0.035. Sequence TLLMVSMTVRPL has a protein stability index of 0.274 ± 0.022. Sequence TPPLPTTPTLNS has a protein stability index of 0.718 ± 0.027. In the case of TPRQYVVSLSLC, the protein stability index is reported as 0.587 ± 0.039. In the case of TRVVSPNVILMC, the protein stability index is reported as 0.61 ± 0.027. In the case of TTSHFCVVLVSV, the protein stability index is reported as 0.232 ± 0.039. TVERKMYWQRWG was tested, and the protein stability index was 0.641 ± 0.011. TVGVGWVWVGVL showed a protein stability index of 0.446 ± 0.026. Sequence TVIVCCHLEVVY has a protein stability index of 0.0294 ± 0.014. VAALLCWLHLYA showed a protein stability index of 0.509 ± 0.019. VAFVVALSLIFL gave a protein stability index of 0.306 ± 0.028. Sequence VALSILCVFFFF has a protein stability index of 0.272 ± 0.035. VARLGGRIGWEG showed a protein stability index of 0.634 ± 0.014. Work on VCFCFLRFLSLL yielded a protein stability index of 0.572 ± 0.031. In the case of VCFFSSSCFLLV, the protein stability index is reported as 0.507 ± 0.021. VCLVFVVRPCIR was tested, and the protein stability index was 0.436 ± 0.033. In the case of VCLWAIHLSGCW, the protein stability index is reported as 0.46 ± 0.022. VCNYRKLIWKHH was tested, and the protein stability index was 0.653 ± 0.015. For VCVLRWAVAPCR, the protein stability index was 0.245 ± 0.035. VCWCVVVLEFGL showed a protein stability index of 0.197 ± 0.031. With VECPWFCLGVLA the protein stability index was 0.278 ± 0.04. VERKLMTIYIKI showed a protein stability index of 0.451 ± 0.018. VFAFVVFLHFEC gave a protein stability index of 0.237 ± 0.036. Sequence VFFCLFWFFCSF has a protein stability index of 0.482 ± 0.031. For VFFVTSCWVFRG, the protein stability index was 0.432 ± 0.022. VFGFSLLTLLVL gave a protein stability index of 0.386 ± 0.0081. Work on VFRRWGLIGVIV yielded a protein stability index of 0.278 ± 0.041. VFSGGGFFLKVV gave a protein stability index of 0.651 ± 0.024. Work on VFSVSVLFLFFH yielded a protein stability index of 0.282 ± 0.034. VFVLFCAFVRAL showed a protein stability index of 0.286 ± 0.036. For VFVLFLRAVACR, the protein stability index was 0.0288 ± 0.0046. Sequence VFVMVLCALFYF has a protein stability index of 0.242 ± 0.032. VFYRPFFVLFFV showed a protein stability index of 0.265 ± 0.022. VGDVVWFGVGAG gave a protein stability index of 0.662 ± 0.0049. VGEQEVVGIGGV was tested, and the protein stability index was 0.653 ± 0.021. For VGGGCVVVVRWG, the protein stability index was 0.485 ± 0.019. In the case of VGLWCWSFVLVW, the protein stability index is reported as 0.11 ± 0.03. For VGRVIVIVVAGV, the protein stability index was 0.274 ± 0.036. Sequence VGVCGSSGRVGG has a protein stability index of 0.641 ± 0.014. With VGVIGWGGLGVG the protein stability index was 0.487 ± 0.019. VHGWRPLLFHTR gave a protein stability index of 0.647 ± 0.0073. In the case of VHTAIFTSWRRL, the protein stability index is reported as 0.631 ± 0.04. Work on VIGLLSYFLVYL yielded a protein stability index of 0.407 ± 0.037. VIRSIVSAYMIC gave a protein stability index of 0.563 ± 0.013. VISGFVLVFRVR was tested, and the protein stability index was 0.356 ± 0.022. For VKGYISLLLVLI, the protein stability index was 0.264 ± 0.04. VLAARVVLLRCR showed a protein stability index of 0.199 ± 0.031.

Same assay, conditions: genetic background: das1 deletion; temperature: 37 C
Sequence SCLVLDYCFSLV has a protein stability index of 0.643 ± 0.0034. Work on SCYDYVILLQLS yielded a protein stability index of 0.619 ± 0.025. Work on SFFFTLLICFLF yielded a protein stability index of 0.312 ± 0.0082. SFLLGCCWLVLC gave a protein stability index of 0.3934 ± 0.0034. SFLLVWCLLPEI showed a protein stability index of 0.4729 ± 0.0046. Sequence SFLVFLYFFMVF has a protein stability index of 0.449 ± 0.02. SGWGGGTWVKMG gave a protein stability index of 0.76 ± 0.011. In the case of SIQRKIRRMKEN, the protein stability index is reported as 0.7 ± 0.014. In the case of SIVDLFRLRSLS, the protein stability index is reported as 0.7295 ± 0.0054. With SLALLFSFLLFL the protein stability index was 0.536 ± 0.0096. SLFPHIFFFFFA gave a protein stability index of 0.428 ± 0.0029. For SLICLSVGVLLR, the protein stability index was 0.337 ± 0.071. For SLSSSFQFSSPS, the protein stability index was 0.722 ± 0.026. SPIGIFCFILCR gave a protein stability index of 0.211 ± 0.016. SPTQIPLWILAS gave a protein stability index of 0.4539 ± 0.0022. For SRGRVLRLLLLV, the protein stability index was 0.524 ± 0.0093. SRRCGLFVFILF was tested, and the protein stability index was 0.49 ± 0.021. SRSFFRRLLFCF was tested, and the protein stability index was 0.8141 ± 0.0018. For SSAPPTLHTRPS, the protein stability index was 0.686 ± 0.012. Work on SSRRVVLPLLVA yielded a protein stability index of 0.481 ± 0.0058. With SVHKYGFIKEIN the protein stability index was 0.761 ± 0.023. For SVVLCRFVLRIF, the protein stability index was 0.181 ± 0.039. For SVVWIRFVGVRV, the protein stability index was 0.5291 ± 0.0048. SWFNLLSILPRD was tested, and the protein stability index was 0.784 ± 0.022. For SWIKRYEITCIL, the protein stability index was 0.5973 ± 0.0036. SWWISKWVGLNC gave a protein stability index of 0.7821 ± 0.0033. SYMWLVEVLLFI showed a protein stability index of 0.386 ± 0.019. In the case of SYVFEFIVSVVF, the protein stability index is reported as 0.373 ± 0.015. In the case of SYVVVFVIFCVG, the protein stability index is reported as 0.3424 ± 0.0014. TDFICLLWLLHW gave a protein stability index of 0.5698 ± 0.0043. For TFRVRRQKNRNM, the protein stability index was 0.725 ± 0.013. Work on TLFSFLLVFVFG yielded a protein stability index of 0.386 ± 0.0047. TLLMVSMTVRPL was tested, and the protein stability index was 0.411 ± 0.011. Sequence TPPLPTTPTLNS has a protein stability index of 0.703 ± 0.021. TPRQYVVSLSLC showed a protein stability index of 0.703 ± 0.015. TRVVSPNVILMC gave a protein stability index of 0.725 ± 0.019. TTSHFCVVLVSV was tested, and the protein stability index was 0.382 ± 0.009. Work on TVERKMYWQRWG yielded a protein stability index of 0.754 ± 0.01. TVGVGWVWVGVL showed a protein stability index of 0.649 ± 0.015. TVIVCCHLEVVY showed a protein stability index of 0.0693 ± 0.013. For VAALLCWLHLYA, the protein stability index was 0.622 ± 0.032. VAFVVALSLIFL was tested, and the protein stability index was 0.424 ± 0.0062. Work on VALSILCVFFFF yielded a protein stability index of 0.4457 ± 0.0032. In the case of VARLGGRIGWEG, the protein stability index is reported as 0.763 ± 0.015. VCFCFLRFLSLL gave a protein stability index of 0.716 ± 0.031. VCFFSSSCFLLV showed a protein stability index of 0.623 ± 0.01. With VCLVFVVRPCIR the protein stability index was 0.606 ± 0.022. With VCLWAIHLSGCW the protein stability index was 0.58776 ± 0.00056. For VCNYRKLIWKHH, the protein stability index was 0.746 ± 0.029. Work on VCVLRWAVAPCR yielded a protein stability index of 0.429 ± 0.0067. VCWCVVVLEFGL was tested, and the protein stability index was 0.363 ± 0.0062. For VECPWFCLGVLA, the protein stability index was 0.4359 ± 0.0013. For VERKLMTIYIKI, the protein stability index was 0.6806 ± 0.0061. In the case of VFAFVVFLHFEC, the protein stability index is reported as 0.375 ± 0.013. In the case of VFFCLFWFFCSF, the protein stability index is reported as 0.54 ± 0.0084. VFFVTSCWVFRG was tested, and the protein stability index was 0.64 ± 0.022. Work on VFGFSLLTLLVL yielded a protein stability index of 0.5062 ± 0.0021. For VFRRWGLIGVIV, the protein stability index was 0.434 ± 0.018. VFSGGGFFLKVV was tested, and the protein stability index was 0.755 ± 0.022. In the case of VFSVSVLFLFFH, the protein stability index is reported as 0.456 ± 0.015. With VFVLFCAFVRAL the protein stability index was 0.482 ± 0.014. With VFVLFLRAVACR the protein stability index was 0.0423 ± 0.0022. In the case of VFVMVLCALFYF, the protein stability index is reported as 0.38 ± 0.032. Sequence VFYRPFFVLFFV has a protein stability index of 0.413 ± 0.011. Sequence VGDVVWFGVGAG has a protein stability index of 0.782 ± 0.0084. Work on VGEQEVVGIGGV yielded a protein stability index of 0.735 ± 0.046. Work on VGGGCVVVVRWG yielded a protein stability index of 0.619 ± 0.009. In the case of VGLWCWSFVLVW, the protein stability index is reported as 0.189 ± 0.0028. VGRVIVIVVAGV gave a protein stability index of 0.4541 ± 0.0045. In the case of VGVCGSSGRVGG, the protein stability index is reported as 0.718 ± 0.0032. With VGVIGWGGLGVG the protein stability index was 0.549 ± 0.015. Work on VHGWRPLLFHTR yielded a protein stability index of 0.702 ± 0.031. Sequence VHTAIFTSWRRL has a protein stability index of 0.7721 ± 0.001. VIGLLSYFLVYL gave a protein stability index of 0.6091 ± 0.0039. Sequence VIRSIVSAYMIC has a protein stability index of 0.6726 ± 0.0028. For VISGFVLVFRVR, the protein stability index was 0.591 ± 0.066. VKGYISLLLVLI showed a protein stability index of 0.419 ± 0.0071. VLAARVVLLRCR was tested, and the protein stability index was 0.335 ± 0.0052.
